Measured values as given in the supplement of paper PMC11246515.
± gives the standard deviation of the averaged measurements.

Test: total protein half-life in vivo (active degradation + dilution); higher = more stable protein
[1] = E. coli NCM3722 delta-clpP delta-lon delta-hslV, growth: N-lim chemostat, doubling time 6 h
[2] = E. coli NCM3722 delta-clpP, growth: N-lim chemostat, doubling time 6 h
[3] = E. coli NCM3722 delta-hslV, growth: N-lim chemostat, doubling time 6 h
[4] = E. coli NCM3722 delta-lon, growth: N-lim chemostat, doubling time 6 h
[5] = E. coli NCM3722 delta-smpB, growth: N-lim chemostat, doubling time 6 h
[6] = wild type E. coli NCM3722, growth: C-lim chemostat, doubling time 3 h
[7] = wild type E. coli NCM3722, growth: C-lim chemostat, doubling time 6 h
[8] = wild type E. coli NCM3722, growth: C-lim chemostat, doubling time 12 h
[9] = wild type E. coli NCM3722, growth: N-lim chemostat, doubling time 6 h
[10] = wild type E. coli NCM3722, growth: P-lim chemostat, doubling time 6 h
[11] = wild type E. coli NCM3722, growth: P-lim chemostat, doubling time 12 h
[12] = wild type E. coli NCM3722, growth: N-lim chemostat, doubling time 12 h

Row | Sequence | total protein half-life in vivo [1] [h] | total protein half-life in vivo [2] [h] | total protein half-life in vivo [3] [h] | total protein half-life in vivo [4] [h] | total protein half-life in vivo [5] [h] | total protein half-life in vivo [6] [h] | total protein half-life in vivo [7] [h] | total protein half-life in vivo [8] [h] | total protein half-life in vivo [9] [h] | total protein half-life in vivo [10] [h] | total protein half-life in vivo [11] [h] | total protein half-life in vivo [12] [h]
1 | MFPPMWRRLIYHPDINYALRQTLVLCLPVAVGLMLGELRFGLLFSLVPACCNIAGLDTPHKRFFKRLIIGASLFATCSLLTQLLLAKDVPLPFLLTGLTLVLGVTAELGPLHAKLLPASLLAAIFTLSLAGYMPVWEPLLIYALGTLWYGLFNWFWFWIWREQPLRESLSLLYRELADYCEAKYSLLTQHTDPEKALPPLLVRQQKAVDLITQCYQQMHMLSAQNNTDYKRMLRIFQEALDLQEHISVSLHQPEEVQKLVERSHAEEVIRWNAQTVAARLRVLADDILYHRLPTRFTMEKQIGALEKIARQHPDNPVGQFCYWHFSRIARVLRTQKPLYARDLLADKQRRMPLLPALKSYLSLKSPALRNAGRLSVMLSVASLMGTALHLPKSYWILMTVLLVTQNGYGATRLRIVNRSVGTVVGLIIAGVALHFKIPEGYTLTLMLITTLASYLILRKNYGWATVGFTITAVYTLQLLWLNGEQYILPRLIDTIIGCLIAFGGTVWLWPQWQSGLLRKNAHDALEAYQEAIRLILSEDPQPTPLAWQRMRVNQAHNTLYNSLNQAMQEPAFNSHYLADMKLWVTHSQFIVEHINAMTTLAREHRALPPELAQEYLQSCEIAIQRCQQRLEYDEPGSSGDANIMDAPEMQPHEGAAGTLEQHLQRVIGHLNTMHTISSMAWRQRPHHGIWLSRKLRDSKA | 6.2 ± 0.17 | 6.9 | 4.97 ± 0.47 | 5.47 ± 0.38 | 5.02 ± 0.33 | > 4 | 5.87 | 13.4 ± 0.3 | 6.05 ± 0.55 | 6.24 ± 0.091 | 12.2 ± 0.44 | 
2 | MFQDNPLLAQLKQQLHSQTPRAEGVVKATEKGFGFLEVDAQKSYFIPPPQMKKVMHGDRIIAVIHSEKERESAEPEELVEPFLTRFVGKVQGKNDRLAIVPDHPLLKDAIPCRAARGLNHEFKEGDWAVAEMRRHPLKGDRSFYAELTQYITFGDDHFVPWWVTLARHNLEKEAPDGVATEMLDEGLVREDLTALDFVTIDSASTEDMDDALFAKALPDDKLQLIVAIADPTAWIAEGSKLDKAAKIRAFTNYLPGFNIPMLPRELSDDLCSLRANEVRPVLACRMTLSADGTIEDNIEFFAATIESKAKLVYDQVSDWLENTGDWQPESEAIAEQVRLLAQICQRRGEWRHNHALVFKDRPDYRFILGEKGEVLDIVAEPRRIANRIVEEAMIAANICAARVLRDKLGFGIYNVHMGFDPANADALAALLKTHGLHVDAEEVLTLDGFCKLRRELDAQPTGFLDSRIRRFQSFAEISTEPGPHFGLGLEAYATWTSPIRKYGDMINHRLLKAVIKGETATRPQDEITVQMAERRRLNRMAERDVGDWLYARFLKDKAGTDTRFAAEIVDISRGGMRVRLVDNGAIAFIPAPFLHAVRDELVCSQENGTVQIKGETVYKVTDVIDVTIAEVRMETRSIIARPVA | 6.36 ± 1.1 | 5.31 ± 0.54 | 4.41 ± 0.31 | 4.57 ± 0.42 | 3.92 ± 0.095 | 2.74 ± 0.38 | 5.8 ± 0.41 | 10 ± 3.6 | 4.3 ± 0.15 | 4.66 ± 0.14 | 8.07 ± 0.19 | 7.65 ± 0.77
3 | MFQKVDAYAGDPILTLMERFKEDPRSDKVNLSIGLYYNEDGIIPQLQAVAEAEARLNAQPHGASLYLPMEGLNCYRHAIAPLLFGADHPVLKQQRVATIQTLGGSGALKVGADFLKRYFPESGVWVSDPTWENHVAIFAGAGFEVSTYPWYDEATNGVRFNDLLATLKTLPARSIVLLHPCCHNPTGADLTNDQWDAVIEILKARELIPFLDIAYQGFGAGMEEDAYAIRAIASAGLPALVSNSFSKIFSLYGERVGGLSVMCEDAEAAGRVLGQLKATVRRNYSSPPNFGAQVVAAVLNDEALKASWLAEVEEMRTRILAMRQELVKVLSTEMPERNFDYLLNQRGMFSYTGLSAAQVDRLREEFGVYLIASGRMCVAGLNTANVQRVAKAFAAVM | 4.07 ± 1.2 | 2.43 ± 0.047 | 2.54 ± 0.061 | 3.01 ± 0.049 | 2.676 ± 0.003 | 3.06 ± 0.56 | 4.92 ± 0.29 | 7.47 ± 0.87 | 2.62 ± 0.058 | 5.28 ± 0.29 | 9.773 ± 0.058 | 3.66 ± 0.17
4 | MFRQLKKNLVATLIAAMTIGQVAPAFADSADTLPDMGTSAGSTLSIGQEMQMGDYYVRQLRGSAPLINDPLLTQYINSLGMRLVSHANSVKTPFHFFLINNDEINAFAFFGGNVVLHSALFRYSDNESQLASVMAHEISHVTQRHLARAMEDQQRSAPLTWVGALGSILLAMASPQAGMAALTGTLAGTRQGMISFTQQNEQEADRIGIQVLQRSGFDPQAMPTFLEKLLDQARYSSRPPEILLTHPLPESRLADARNRANQMRPMVVQSSEDFYLAKARTLGMYNSGRNQLTSDLLDEWAKGNVRQQRAAQYGRALQAMEANKYDEARKTLQPLLAAEPGNAWYLDLATDIDLGQNKANEAINRLKNARDLRTNPVLQLNLANAYLQGGQPQEAANILNRYTFNNKDDSNGWDLLAQAEAALNNRDQELAARAEGYALAGRLDQAISLLSSASSQVKLGSLQQARYDARIDQLRQLQERFKPYTKM | 4.342 ± 0.022 | 5.12 ± 1.1 | 4.86 ± 0.098 | 4.52 ± 0.32 | 4.35 ± 0.05 | 2.7 ± 0.2 | 5.08 ± 0.19 | 9.19 ± 1.1 | 4.73 ± 0.033 | 3.46 ± 0.47 | 7.12 ± 1.7 | 8.19 ± 1.1
